Key:
[1] = biological target: SUZ12-3XFLAG PRC2.2mut (loss-of-PRC2.2 mutant, F99A, R103A, L105A, I106A) (human (edited endogenous locus in WTC-11 hiPSCs)), Q15022; experiment: affinity purification with mass spectrometry; conditions: remark: other sources report otherwise
[2] = biological target: SUZ12-3XFLAG PRC2.1mut (loss-of-PRC2.1 mutant, (338–353)-to-GSGSGS) (human (edited endogenous locus in WTC-11 hiPSCs)), Q15022; experiment: affinity purification with mass spectrometry; conditions: remark: other sources report otherwise

fold less enriched than with WT SUZ12 [1] [fold]	fold less enriched than with WT SUZ12 [2] [fold]	Binder
13	–	JARID2 (endogenous, hiPSCs), Q92833 1-1246 (natural protein) MSKERPKRNIIQKKYDDSDGIPWSEERVVRKVLYLSLKEFKNSQKRQHAEGIAGSLKTVNGLLGNDQSKGLGPASEQSENEKDDASQVSSTSNDVSSSDFEEGPSRKRPRLQAQRKFAQSQPNSPSTTPVKIVEPLLPPPATQISDLSKRKPKTEDFLTFLCLRGSPALPNSMVYFGSSQDEEEVEEEDDETEDVKTATNNASSSCQSTPRKGKTHKHVHNGHVFNGSSRSTREKEPVQKHKSKEATPAKEKHSDHRADSRREQASANHPAAAPSTGSSAKGLAATHHHPPLHRSAQDLRKQVSKVNGVTRMSSLGAGVTSAKKMREVRPSPSKTVKYTATVTKGAVTYTKAKRELVKDTKPNHHKPSSAVNHTISGKTESSNAKTRKQVLSLGGASKSTGPAVNGLKVSGRLNPKSCTKEVGGRQLREGLQLREGLRNSKRRLEEAHQAEKPQSPPKKMKGAAGPAEGPGKKAPAERGLLNGHVKKEVPERSLERNRPKRATAGKSTPGRQAHGKADSASCENRSTSQPESVHKPQDSGKAEKGGGKAGWAAMDEIPVLRPSAKEFHDPLIYIESVRAQVEKFGMCRVIPPPDWRPECKLNDEMRFVTQIQHIHKLGRRWGPNVQRLACIKKHLKSQGITMDELPLIGGCELDLACFFRLINEMGGMQQVTDLKKWNKLADMLRIPRTAQDRLAKLQEAYCQYLLSYDSLSPEEHRRLEKEVLMEKEILEKRKGPLEGHTENDHHKFHPLPRFEPKNGLIHGVAPRNGFRSKLKEVGQAQLKTGRRRLFAQEKEVVKEEEEDKGVLNDFHKCIYKGRSVSLTTFYRTARNIMSMCFSKEPAPAEIEQEYWRLVEEKDCHVAVHCGKVDTNTHGSGFPVGKSEPFSRHGWNLTVLPNNTGSILRHLGAVPGVTIPWLNIGMVFSTSCWSRDQNHLPYIDYLHTGADCIWYCIPAEEENKLEDVVHTLLQANGTPGLQMLESNVMISPEVLCKEGIKVHRTVQQSGQFVVCFPGSFVSKVCCGYSVSETVHFATTQWTSMGFETAKEMKRRHIAKPFSMEKLLYQIAQAEAKKENGPTLSTISALLDELRDTELRQRRQLFEAGLHSSARYGSHDGSSTVADGKKKPRKWLQLETSERRCQICQHLCYLSMVVQENENVVFCLECALRHVEKQKSCRGLKLMYRYDEEQIISLVNQICGKVSGKNGSIENCLSKPTPKRGPRKRATVDVPPSRLSASSSSKSASSSS
–	35	MTF2 (endogenous, hiPSCs), Q9Y483 1-593 (natural protein) MRDSTGAGNSLVHKRSPLRRNQKTPTSLTKLSLQDGHKAKKPACKFEEGQDVLARWSDGLFYLGTIKKINILKQSCFIIFEDSSKSWVLWKDIQTGATGSGEMVCTICQEEYSEAPNEMVICDKCGQGYHQLCHTPHIDSSVIDSDEKWLCRQCVFATTTKRGGALKKGPNAKALQVMKQTLPYSVADLEWDAGHKTNVQQCYCYCGGPGDWYLKMLQCCKCKQWFHEACVQCLQKPMLFGDRFYTFICSVCSSGPEYLKRLPLQWVDIAHLCLYNLSVIHKKKYFDSELELMTYINENWDRLHPGELADTPKSERYEHVLEALNDYKTMFMSGKEIKKKKHLFGLRIRVPPVPPNVAFKAEKEPEGTSHEFKIKGRKASKPISDSREVSNGIEKKGKKKSVGRPPGPYTRKMIQKTAEPLLDKESISENPTLDLPCSIGRTEGTAHSSNTSDVDFTGASSAKETTSSSISRHYGLSDSRKRTRTGRSWPAAIPHLRRRRGRLPRRALQTQNSEIVKDDEGKEDYQFDELNTEILNNLADQELQLNHLKNSITSYFGAAGRIACGEKYRVLARRVTLDGKVQYLVEWEGATAS
–	48	EPOP, A6NHQ4 1-379 (natural protein) METLCPAPRLAVPASPRGSPCSPTPRKPCRGTQEFSPLCLRALAFCALAKPRASSLGPGPGELAARSPVLRGPQAPLRPGGWAPDGLKHLWAPTGRPGVPNTAAGEDADVAACPRRGEEEEGGGGFPHFGVRSCAPPGRCPAPPHPRESTTSFASAPPRPAPGLEPQRGPAASPPQEPSSRPPSPPAGLSTEPAGPGTAPRPFLPGQPAEVDGNPPPAAPEAPAASPSTASPAPAAPGDLRQEHFDRLIRRSKLWCYAKGFALDTPSLRRGPERPPAKGPARGAAKKRRLPAPPPRTAQPRRPAPTLPTTSTFSLLNCFPCPPALVVGEDGDLKPASSLRLQGDSKPPPAHPLWRWQMGGPAVPEPPGLKFWGINMDES

Reference: publication PMC12132310
